# Measurements reported in the DeepSol protein solubility set.
# Test: soluble on expression in E. coli; label from the status in PepcDB or PDB records
row,Sequence,soluble on expression in E. coli
1,MEAEIFPGTIHLIDKPQAIPEAIRLLSASRTIGFDTETRPSFVRGARPSVALMQMSTETDCFLFRLNMIDIPEELQQLLENPGILKVGLSLSDDMTVIRRRKPIEPAGFVELQRLCPAYGIRDASLQKIYAILFGRRISKSQRLTNWEARTLTAAQQSYAALDAWACLRIFNQLMTLPTPTPVQFALL,not soluble
2,MEALRLEGVSKRYGRRPVLEGVSLSVRPGEVYALAGPNGSGKTTLIRLATGLAFPTKGRAFLLGEDVHKSPAARRHLGAVVEAPAAFYPYLTGRENLRMHARLSGVEDEARIGEVLARLKLLAVADQKVEGYSLGQRQRLGLAAAILHRPKVLVLDEPTSGLDPEGVELVHRLLQELAREGVAILLSTHHLQEVARYAHRVGILGGGRLLDEVVLSGKEAYRLEAEPLEGALALLKTLPQVASARLQGRSVVFEGEPEAALRALLAEGYRVRALAPHRFDLLDYYQERVRHV,soluble
3,MEANKKAKPSYGDVISNLPNDLLCRILSYLSTKEAALTSILSKRWSNLLLSIPILDFDDSVLLKPQKGQRKNVFFKAFVDRLLSQRVETSSHVQRVSLKCRQGGVEPDCVIKWILTTVRDLGVLDLSLCIDFGIFHLPFNVFRSKTLVKLRIGTMIRLSQFPSDVVSPTLNSLVLDLVEFRDGDKVEFRQILLAFPSLQSLRVHESNKWKFWNGSASSRTLKSLVYRSDDDSSAPKPCVSFDTPSLVYLDYSDMVADKYENLKFDSLVEARLDLHLTAFQIMRKPNNIGIVSGDVTTLFKGIRNVKILCLSPDALEALYYRGEKIPMFNNLITLSLGSDKPHGSPFIFWKLLPSLLNNSLKLETLIIKGLVHYVAEGWEGLSPMTPMSRLCFSWDTVSDSLSSSAMKVLEISGYKGTWQELNQMKRFLGNLSRLEVVRVYHKAMDDKERINVMFDLFLLPKVSSECDIQVMKETA,soluble
4,MEARNAEGLESCIEKIQEVKLSSFAELKAFRERKVALITGITGQDGSYLAELLLSKGYKVHGIIRRSSSFNTARIEHLYGNPVTHNGSASFSLHYGDMTDSSCLIKLISTIEPTEIYHLAAQSHVKVSFDLPEYTAEVDAVGTLRLLDAIHACRLTEKVRFYQASTSELYGKVQEIPQSELTPFYPRSPYAVAKMYGYWIVVNYREAYKMFACNGILFNHESPRRGETFVTRKITRSVAKISLRQQEHIELGNLSALRDWGHAKEYVEAMWRILQQDTPDDFVIATGKQFSVREFCNLAFAEIGEQLVWEGEGVDEVGKNQDGVVRVKVSPKYYRPTEVETLLGNPAKARKTLGWEPKITVPELVKEMVASDIALMEADPMA,not soluble
5,MEAVWGILPKTVAAALQHHLPSCRRGIEEIRIRVSRPLEVIVDGTARLLPYEVTKEDGVHLLNKLSHYSIYAVEEELKRGFMTIEGGHRVGLAGKVITEGGKVKAIRDVSSFNIRIAKEQIGISEPLIPYVYDGRWRHTMIIGSPQTGKTTLLRDAARLISSGTGRIPAQKVAIVDERSEIAGCVKGIPQFSFGPRLDVLDACPKAEGMMMMIRSMSPDVMIVDEIGREEDSEAVLEAANAGVSVWTTVHGRNIQDVWQRPTLGPVMEQKVFERFIELTNIPHPGSIRRILDAGGTVLYERAVVHR,not soluble
6,MEAYDICKFWKLDMLEEFSQIVLKGKKKIILDIPSPSQQNKSDIVSLCPADSPETCNSSIPDWLVKVMRKENGYDPKLIIKRRVLCTTDLRKNQGCLSMHLSKLEKSDFLTEDETRFLDEDFLKAKRDGLKVFLVDPESDKHVVYLKKWNGNTVWKYVLSHGWNNVIDKKIFKVNDVIEIWSFRDGSGKLCFALSSPTRCGRSSSGHSS,soluble
7,MEDFKKIVNNIRLKDTFDFKLAAFPNQNYDQLLPSQIYKNYYQGIEIQQHKYQNELDIKIINFLYPDGDFGSANKNGTLKLSLMLTDKKNNQVYYKLLEVSGFKSNPYGVDLEHHHHHH,not soluble
8,MEDGRTSDKVLEKIQEKIFSGEWKPGQKIMSETKLAEDLNVSRVSVREAIEKLAAFNIVSKKKGGGTFINDLGPSVYLNSLLPMLILNRDNYLEILEFRLITEPESAKLCAERCDDELIISLEKIYDNMKNYKDDIQKFTKEDLNFHTKIAEGTKNSLIIKINELLMNILEYHQRGLYETLGPKGGICEHKFILDAIKNRDSELAFIYSRRHAERTINDLKKLQT,not soluble
9,MEEAKQKVVDFLNSKSGSKSKFYFNDFTDLFPDMKQREVKKILTALVNDEVLEYWSSGSTTMYGLKGAGKQAAAEHED,soluble
10,MEEERQQSPLEGLSEEALKHVHQLDEPIPIELQASYFRLSAEMRRRGIQLSENEVQDAEQLLFDPVLSDDIKKMTLLRLAITGNITVFRIIERYLESAPDSMRPWALMAQLEARIGILSDLVDEKQLVITSGLGGHDGMMRFMAFLHTDKLQDFEHYQEELIEKELLYRIGKASGEVERLEMHNNYLLLTFLVPINYDLRNFFSSFIAECNQFGHFLSTTFIITNTQLLTPQGAQVALKKYAEENDLPATN,not soluble
11,MEEIMLFPLSSVVLPEGKMKLRIFEPRYQRMVAQCSKTGSGFGLCLFDSKSNKNANELSEFGTLVKIVDFETLSDGLLGITVVGIRRFAIRKVRVEYDGLRIATVQWFPDWPSQELLERERFLGEQLQEVYRQFPQIGELHSLCFFDDASWVCQRWLELLPLSKGQFDVLVGQRDCHAALAFLQRTIESHLDT,not soluble
12,MEELFCIGCGIQIQTEDKEKAGFTPAAALKKGMETGELYCQRCFRLRHYNEITDVHITDDEFLRLLHEVGDSDALVVNVIDIFDFNGSIIPGLSRFISGNDVLLVGNKKDILPKSVKDGKVTQWLTERAHEEGLRPLDVMLTSAQNKYAIKDLIGRINELRNGRDVYVVGVTNVGKSTLINAIIQEITGNKDVITTSRFPGTTLDKIEIPLDDGTFIFDTPGIIHRHQMAHYLSPKELKIVSPKKEIKPKTYQLNPEQTLFLGGLARFDFINGERQGFTAFFDNQLELHRTKLAGADAFYDKHVGTLLTPPDKKELTAFPKLVRHEFTIDQKMDIVFSGLGWIRVNGQKDSKAIVAAWAPEGVAVIVRKAII,soluble
13,MEEPQITVGILSGKEIEFSFPESFTTPDGTKVSGAQKAVYQKEKIYWSGKEYDELIFYPQPNAGIFFELKDVTIGINFHWERKEVQRFQGALKIIVEGETLTAINVISIEDYLTSVISSEMSATASLELLKAHAVISRSWLINKLRVENEKWKATIQPDSAANSPHSTLHSQLIKWYDHEAHTHFDVCADDHCQRYQGITRASTPQAIEAVSATRGEVLMYEGKICDARFSKCCGGAMEEFQNCWENVRHPYLTGKRDYIPESHASDSEKQITGPAIQLPDLTQEEEADRWIRTSPDAFCNTQDKKILSQVLNNYDQETTDFYRWKISYSQQELAELIHQRSGIDFGEIIDLIPVERGTSGRLIRLKIVGTLRTLTIGKELEIRRTLSPSHLYSSAFLVDKEKGEEGNVPTRFTLTGAGWGHGVGLCQIGAAVMGERGYYYKDILAHYYPGSRLEKQYE,not soluble
14,MEEPVLDFQFVHRKIHTGQIAAFDIIARLVPIKNIRGNDFDDRPAAAVFGMHNLQTRPVARHFEGGADFTQLIVLTLGQPESAYVAVRLKIVRGDISRGGVGKLTGKQSHT,not soluble
15,MEERDSETGWRGSREGWLQAAYEALIEGGVESVKIMTLAARLKLSRTSFYWFFKDRADVLDALRSQWAGTTTAPLVAASAEYAESRAEAMLNVLACFLSGRFDARFEFAARSWGLQDPAMAAAVEAADAERLAALTDMLARWGHDPQEADVRARTVYLVQIGYISMRAEETLETRLARIPNYVEIYTGVRPEPREMARFRARLGLAV,not soluble
16,MEERGDSEPTPGCSGLGPGGVRGFGDGGGAPSWAPEDAWMGTHPKYLEMMELDIGDATQVYVAFLVYLDLMESKSWHEVNCVGLPELQLICLVGTEIEGEGLQTVVPTPITASLSHNRIREILKASRKLQGDPDLPMSFTLAIVESDSTIVYYKLTDGFMLPDPQNISLRR,soluble
17,MEERILFSQKTTIFVPVDNDSRIKPMSKDSLCAQHTDCSGCPKAMESTLIHRNLLRGQHIPKDKCTQNCMLFMIEGELLINSDEHPGTTLHEKQFILQAIGSKYEILALTDVSYILFWFNELPLLCENRYREIIDQAEGPLTYTPMVMNPRLFYLINDVAAYLDESTPACGKYIDLKCQEMVYMITNYYPLPQLRAFFYPISTYTESFQYFVMQNYSKAKNVEEFAHLGGYNTTTFRRLFRNLYGVPVYEWMLEKKREGILEDLQHSNMRITEICNRYGFDSLSHLAHFCKDSFGDTPRALRKKAANGEKIGKITD,not soluble
18,MEERTLVILGATGSIGTQTLDVLKKVKGIRLIGISFHSNLELAFKIVKEFNVKNVAITGDVEFEDSSINVWKGSHSIEEMLEALKPDITMVAVSGFSGLRAVLASLEHSKRVCLANKESLVCGGFLVKKKLKEKGTELIPVDSEHSAIFQVMEPEVEKVVLTASGGALRDWKISKIDRARPEDVLKHPVWNMGARITVDSATMVNKAFEVLEAMELFELPFEKIEVKIHREGLVHGAVVLPDGNVKMVVSPPDMRIPISYALFYPRRVALEPFFLRTISLSFEDPDPEKYPAFFLLKEIKDSYALRTAFNAADEVAVEAFLKGRIRFGGIHRVIEKTLEEFQGYPQPRTLDDVERIHFEAIKKAERVTEWLSSTSY,soluble
19,MEEVTIKANLIFANGSTQTAEFQGTFEQATSEAYAYADTLKQDNGEWTVDVADQGYTLNIQFAG,soluble
20,MEFIGDTRIVIINPLGAKKICRLTFEQIKVIYQEVKTHFENYRIIFTGLPQDLLTIPILEIETLPFDEFIYTVALTKYSDFVISVDTALVHIAAAYHKPTLAFYPNSRTPEYPSHLIWSPNHHKSIQIVSPTYTVKDIDTETLTNSVKRLEHHHHHH,not soluble
21,MEFKVTLTTEEIVRGLKHYRRIAKQDVLRAPETPNPEVFRRHAEARREVYAKLAEVAEREGPEAAVAYALELYRSLPFVTGTPEDQYPEIKGQENALENFFLMIGLDPKVRREARKARKPLQ,soluble
22,MEFTLLGWPEDGHRLRLDYKQFAYAGKFVMTSTGKAVIGDDGVVAAAAFDADRTDPDTLCVRYITVRQDRQGDRLGARLLRFVRERATERGFEHVSIGVNNPFSYQAAYRAGFCFSGAESGMAELDLVWPGDRSTERYQAGLDLFRERDLSPDEESFLAAKADADPPTVLNEWAEQPSARTD,not soluble
23,MEFVKGDQVEVCSKEDGFLGSYFGATVVSKTPEGSYYKIKYKNLVSDTDQSKRLVEVISADELRPMPPKSLHVLIRCGDKVDAFDKDGWWVGEVTAVRRNIYSVYFSTTDEELEYPLYSLRKHHEWVNGSWVRQ,soluble
24,MEGDVLSGFGDRHNMDGKLLQSFQKSFVDVQDILDQNRLLINEINQNHESKQPDNLGRNVGLIKELNNNIRRVASLYGDLSHSFARSVDASSEGESSGTLKSDGKANQKRFRSGDGSLVPATDEEMLEVKNLLEKNEQDMPVLPDPIQTEEYIPDEGSPSQFLQLENFEGKTYCIHAKTDRISLGLHDKGIYWVTCNVGAINFTPPLKLLQSKEELMNGSQMLFVLPDTKFQISTELSGNVELVPSKVLLQEPILFSSNGCSINQSTDVLNATASPKEPALSTAASKPDFSRVPGEISLANLSIKELQETFRATFGRETTSKDKRWLKRRIKMGLINSCVVPTTTLTINDSKLIGGDQDAIDAFSKGTVDEETATESIDTPASPDGIKGHSNDFGHSPVETFVDHYSGNEDFEGEDGSAKRVRKPTRRYIEETNEKQQIDGSMIPSKDPSSIQAVSSEGRVVVTRMVSLAGSRIQVPYVSHVRRSRPRENIMALGEFRSKSWEVKAAPEEGNLNLSPPQLSNDVNRVPGVKSASRCVQKESDKDHLKPIFTDVDQEMMEPELLDSSGDSSDDNFVDAPITQSASGRKLHRAWTISEVEKLVEGVSKYGVGKWTEIKKLSFSPYTHRTTVDLKDKWRNLQKASSSNRMEGGLKKHGSMAIPTHIMLQVRELAQKQSPISRVVSKARVVKRSRSRNGFL,soluble
